Reference: IntAct's records for PubMed 16401726

B1: UV excision repair protein RAD23 (Saccharomyces cerevisiae), P32628 (parent)
chain: MVSLTFKNFKKEKVPLDLEPSNTILETKTKLAQSISCEESQIKLIYSGKVLQDSKTVSECGLKDGDQVVFMVSQKKSTKTKVTEPPIAPESATTPGRENSTEASPSTDASAAPAATAPEGSQPQEEQTATTERTESASTPGFVVGTERNETIERIMEMGYQREEVERALRAAFNNPDRAVEYLLMGIPENLRQPEPQQQTAAAAEQPSTAATTAEQPAEDDLFAQAAQGGNASSGALGTTGGATDAAQGGPPGSIGLTVEDLLSLRQVVSGNPEALAPLLENISARYPQLREHIMANPEVFVSMLLEAVGDNMQDVMEGADDMVEGEDIEVTGEAAAAGLGQGEGEGSFQVDYTPEDDQAISRLCELGFERDLVIQVYFACDKNEEAAANILFSDHAD
partner: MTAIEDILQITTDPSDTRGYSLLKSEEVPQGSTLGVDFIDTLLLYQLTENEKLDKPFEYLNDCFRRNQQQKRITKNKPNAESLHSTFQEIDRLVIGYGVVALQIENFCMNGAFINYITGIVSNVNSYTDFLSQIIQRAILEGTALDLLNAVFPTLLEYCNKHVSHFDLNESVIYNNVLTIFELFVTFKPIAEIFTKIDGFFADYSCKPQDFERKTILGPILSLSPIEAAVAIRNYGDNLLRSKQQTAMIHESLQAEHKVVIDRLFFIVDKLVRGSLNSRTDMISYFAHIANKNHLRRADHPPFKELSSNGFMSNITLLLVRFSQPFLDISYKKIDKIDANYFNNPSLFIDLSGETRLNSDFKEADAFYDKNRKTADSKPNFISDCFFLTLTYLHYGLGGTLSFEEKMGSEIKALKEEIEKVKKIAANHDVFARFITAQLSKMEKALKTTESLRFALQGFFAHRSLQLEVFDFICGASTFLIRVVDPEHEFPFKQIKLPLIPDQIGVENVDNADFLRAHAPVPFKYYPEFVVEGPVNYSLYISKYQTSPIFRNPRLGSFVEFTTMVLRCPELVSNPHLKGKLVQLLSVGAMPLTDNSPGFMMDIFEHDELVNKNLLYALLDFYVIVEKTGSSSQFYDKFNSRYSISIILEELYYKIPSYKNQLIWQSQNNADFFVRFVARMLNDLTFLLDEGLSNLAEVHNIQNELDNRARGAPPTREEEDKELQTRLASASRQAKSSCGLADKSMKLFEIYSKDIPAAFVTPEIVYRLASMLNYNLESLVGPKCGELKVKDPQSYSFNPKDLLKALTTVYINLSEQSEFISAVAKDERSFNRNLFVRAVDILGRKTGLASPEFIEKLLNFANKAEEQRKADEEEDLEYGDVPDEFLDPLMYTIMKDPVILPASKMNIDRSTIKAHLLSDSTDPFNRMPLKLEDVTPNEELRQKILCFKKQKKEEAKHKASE
B2: UV excision repair protein RAD23 (Saccharomyces cerevisiae), P32628 (parent)
chain: B1 chain
partner: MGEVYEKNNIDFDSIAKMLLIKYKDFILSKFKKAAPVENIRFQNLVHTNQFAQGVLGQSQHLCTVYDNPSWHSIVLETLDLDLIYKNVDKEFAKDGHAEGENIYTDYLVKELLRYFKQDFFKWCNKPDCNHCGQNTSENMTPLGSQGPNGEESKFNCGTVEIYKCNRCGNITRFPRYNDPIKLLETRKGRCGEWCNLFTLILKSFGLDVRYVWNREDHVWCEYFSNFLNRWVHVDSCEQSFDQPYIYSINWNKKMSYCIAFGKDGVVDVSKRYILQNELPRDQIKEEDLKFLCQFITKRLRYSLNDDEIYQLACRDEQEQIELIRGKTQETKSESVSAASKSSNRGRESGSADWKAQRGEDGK
B3: UV excision repair protein RAD23 (Saccharomyces cerevisiae), P32628 (parent)
chain: B1 chain
partner: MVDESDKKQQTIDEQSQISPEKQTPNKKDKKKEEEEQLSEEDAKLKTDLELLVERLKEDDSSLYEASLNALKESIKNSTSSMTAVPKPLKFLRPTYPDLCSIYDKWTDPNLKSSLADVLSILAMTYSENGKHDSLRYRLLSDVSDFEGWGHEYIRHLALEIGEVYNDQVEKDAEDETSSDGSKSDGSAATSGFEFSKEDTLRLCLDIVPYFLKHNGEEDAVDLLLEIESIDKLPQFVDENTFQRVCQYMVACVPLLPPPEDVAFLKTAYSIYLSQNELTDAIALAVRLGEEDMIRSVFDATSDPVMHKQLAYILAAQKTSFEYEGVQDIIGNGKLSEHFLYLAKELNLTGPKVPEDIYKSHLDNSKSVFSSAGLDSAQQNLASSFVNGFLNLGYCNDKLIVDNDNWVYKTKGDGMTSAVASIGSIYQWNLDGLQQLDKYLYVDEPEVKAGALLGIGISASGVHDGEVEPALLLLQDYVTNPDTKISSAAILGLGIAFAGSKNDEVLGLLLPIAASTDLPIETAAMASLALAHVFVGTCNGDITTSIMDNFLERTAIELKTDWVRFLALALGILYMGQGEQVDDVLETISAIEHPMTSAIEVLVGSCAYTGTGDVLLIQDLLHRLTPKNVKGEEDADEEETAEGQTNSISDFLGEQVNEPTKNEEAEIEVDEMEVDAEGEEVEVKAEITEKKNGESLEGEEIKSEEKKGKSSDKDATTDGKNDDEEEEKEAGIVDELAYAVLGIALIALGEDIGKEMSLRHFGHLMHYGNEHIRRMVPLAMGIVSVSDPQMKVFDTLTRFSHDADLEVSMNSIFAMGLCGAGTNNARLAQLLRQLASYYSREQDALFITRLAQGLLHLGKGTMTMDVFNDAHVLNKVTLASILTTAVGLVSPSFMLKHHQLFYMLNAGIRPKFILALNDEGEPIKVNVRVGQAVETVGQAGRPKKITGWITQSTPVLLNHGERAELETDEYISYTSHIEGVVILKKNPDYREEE
B4: "Peptide-N(4)-(N-acetyl-beta-glucosaminyl)asparagine amidase" (Saccharomyces cerevisiae), Q02890 (parent)
chain: B2 partner
partner: B1 chain
B5: UV excision repair protein RAD23 (Saccharomyces cerevisiae), P32628 (parent)
chain: B1 chain
partner: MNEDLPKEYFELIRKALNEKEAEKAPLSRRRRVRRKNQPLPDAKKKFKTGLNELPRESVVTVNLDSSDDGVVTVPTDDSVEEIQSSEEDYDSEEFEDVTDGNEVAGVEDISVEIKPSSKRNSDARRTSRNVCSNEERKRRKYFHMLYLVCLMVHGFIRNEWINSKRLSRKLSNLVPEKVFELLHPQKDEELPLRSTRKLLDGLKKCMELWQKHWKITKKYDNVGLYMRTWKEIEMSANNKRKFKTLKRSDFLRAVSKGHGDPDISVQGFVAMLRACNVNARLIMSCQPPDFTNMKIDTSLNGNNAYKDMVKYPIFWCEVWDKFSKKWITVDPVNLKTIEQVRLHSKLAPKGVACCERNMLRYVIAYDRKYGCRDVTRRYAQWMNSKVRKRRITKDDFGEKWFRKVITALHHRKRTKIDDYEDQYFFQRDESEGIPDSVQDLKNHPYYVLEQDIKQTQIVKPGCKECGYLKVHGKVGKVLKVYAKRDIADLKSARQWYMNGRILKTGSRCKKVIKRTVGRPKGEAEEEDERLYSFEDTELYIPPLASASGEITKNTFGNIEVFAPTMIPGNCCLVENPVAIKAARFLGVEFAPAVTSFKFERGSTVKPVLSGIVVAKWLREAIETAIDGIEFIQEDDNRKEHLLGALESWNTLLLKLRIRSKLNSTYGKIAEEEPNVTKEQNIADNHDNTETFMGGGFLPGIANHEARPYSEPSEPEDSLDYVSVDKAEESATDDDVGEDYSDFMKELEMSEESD

Variants of: B1
Details: with ufd2_yeast UFD2, P54860

Question: Which “effect of a mutation on the interaction” value does the source give for MVSLTFKNFKKEKVPLDLEPSNTILETKTKLAQSISCEESQIKLIYSGKVLQDSKTVSECGLKDGDQVVFMVSQKKSTKTKVTEPPIAPESATTPGRENSTEASPSTDASAAPAATAPEGSQPQEEQTATTERTESASTPGFVVGTERNETIERIMEMGYQREEVERALRAAFNNPDRAVEYLLMGIPENLRQPEPQQQTAAAAEQPSTAATTAEQPAEDDLFAQAAQGGNASSGALGTTGGATDAAQGGPPGSIGLTVEDLLSLRQVVSGNPEAQAPLLENISARYPQLREHIMANPEVFVSMLLEAVGDNMQDVMEGADDMVEGEDIEVTGEAAAAGLGQGEGEGSFQVDYTPEDDQAISRLCELGFERDLVIQVYFACDKNEEAAANILFSDHAD [L276Q] here?
Answer: Its value is “with no effect”.

Variants of: B2
Details: with png1_yeast PNG1, Q02890

Question: MVSLTFKNFKKEKVPLDLEPSNTILETKTKLAQSISCEESQIKLIYSGKVLQDSKTVSECGLKDGDQVVFMVSQKKSTKTKVTEPPIAPESATTPGRENSTEASPSTDASAAPAATAPEGSQPQEEQTATTERTESASTPGFVVGTERNETIERIMEMGYQREEVERALRAAFNNPDRAVEYLLMGIPENLRQPEPQQQTAAAAEQPSTAATTAEQPAEDDLFAQAAQGGNASSGALGTTGGATDAAQGGPPGSIGLTVEDLLSLRQVVSGNPEAQAPLLENISARYPQLREHIMANPEVFVSMLLEAVGDNMQDVMEGADDMVEGEDIEVTGEAAAAGLGQGEGEGSFQVDYTPEDDQAISRLCELGFERDLVIQVYFACDKNEEAAANILFSDHAD [L276Q] was tested. Which “effect of a mutation on the interaction” value did it give?
Answer: The value was “disrupting interaction strength”.

Question: How did the “effect of a mutation on the interaction” value turn out when MVSLTFKNFKKEKVPLDLEPSNTILETKTKLAQSISCEESQIKLIYSGKVLQDSKTVSECGLKDGDQVVFMVSQKKSTKTKVTEPPIAPESATTPGRENSTEASPSTDASAAPAATAPEGSQPQEEQTATTERTESASTPGFVVGTERNETIERIMEMGYQREEVERALRAAFNNPDRAVEYALMGIPENLRQPEPQQQTAAAAEQPSTAATTAEQPAEDDLFAQAAQGGNASSGALGTTGGATDAAQGGPPGSIGLTVEDLLSLRQVVSGNPEALAPLLENISARYPQLREHIMANPEVFVSMLLEAVGDNMQDVMEGADDMVEGEDIEVTGEAAAAGLGQGEGEGSFQVDYTPEDDQAISRLCELGFERDLVIQVYFACDKNEEAAANIAFSDHAD [L183A;L392A] was run?
Answer: The value was “with no effect”.

Variants of: B3
Details: with rpn1_yeast RPN1, P38764

Question: With MVSLTFKNFKKEKVPLDLEPSNTILETKTKLAQSISCEESQIKLIYSGKVLQDSKTVSECGLKDGDQVVFMVSQKKSTKTKVTEPPIAPESATTPGRENSTEASPSTDASAAPAATAPEGSQPQEEQTATTERTESASTPGFVVGTERNETIERIMEMGYQREEVERALRAAFNNPDRAVEYALMGIPENLRQPEPQQQTAAAAEQPSTAATTAEQPAEDDLFAQAAQGGNASSGALGTTGGATDAAQGGPPGSIGLTVEDLLSLRQVVSGNPEALAPLLENISARYPQLREHIMANPEVFVSMLLEAVGDNMQDVMEGADDMVEGEDIEVTGEAAAAGLGQGEGEGSFQVDYTPEDDQAISRLCELGFERDLVIQVYFACDKNEEAAANIAFSDHAD [L183A;L392A] as the variant, how does the “effect of a mutation on the interaction” value read?
Answer: The value was “with no effect”.

Question: Which “effect of a mutation on the interaction” value does the source give for MVSLTFKNFKKEKVPLDLEPSNTILETKTKLAQSISCEESQIKLIYSGKVLQDSKTVSECGLKDGDQVVFMVSQKKSTKTKVTEPPIAPESATTPGRENSTEASPSTDASAAPAATAPEGSQPQEEQTATTERTESASTPGFVVGTERNETIERIMEMGYQREEVERALRAAFNNPDRAVEYLLMGIPENLRQPEPQQQTAAAAEQPSTAATTAEQPAEDDLFAQAAQGGNASSGALGTTGGATDAAQGGPPGSIGLTVEDLLSLRQVVSGNPEAQAPLLENISARYPQLREHIMANPEVFVSMLLEAVGDNMQDVMEGADDMVEGEDIEVTGEAAAAGLGQGEGEGSFQVDYTPEDDQAISRLCELGFERDLVIQVYFACDKNEEAAANILFSDHAD [L276Q] here?
Answer: The value was “with no effect”.

Variants of: B4
Details: with rad23_yeast RAD23, P32628

Question: With MGEVYEKNNIDFDSIAKMLLIKYKDFILSKFKKAAPVENIRFQNLVHTNQFAQGVLGQSQHLCTVYDNPSWHSIVLETLDLDLIYKNVDKEFAKDGHAEGENIYTDYLVKELLRYFKQDFFKWCNKPDCNHCGQNTSENMTPLGSQGPNGEESKFNCGTVEIYKCNRCGNITRFPRYNDPIKLLETRKGRCGEWCNLFTLILKSFGLDVRYVWNREDYVWCEYFSNFLNRWVHVDSCEQSFDQPYIYSINWNKKMSYCIAFGKDGVVDVSKRYILQNELPRDQIKEEDLKFLCQFITKRLRYSLNDDEIYQLACRDEQEQIELIRGKTQETKSESVSAASKSSNRGRESGSADWKAQRGEDGK [H218Y] as the variant, how does the “effect of a mutation on the interaction” value read?
Answer: Its value is “with no effect”.

Variants of: B5
Details: with rad4_yeast RAD4, P14736

Question: For MVSLTFKNFKKEKVPLDLEPSNTILETKTKLAQSISCEESQIKLIYSGKVLQDSKTVSECGLKDGDQVVFMVSQKKSTKTKVTEPPIAPESATTPGRENSTEASPSTDASAAPAATAPEGSQPQEEQTATTERTESASTPGFVVGTERNETIERIMEMGYQREEVERALRAAFNNPDRAVEYLLMGIPENLRQPEPQQQTAAAAEQPSTAATTAEQPAEDDLFAQAAQGGNASSGALGTTGGATDAAQGGPPGSIGLTVEDLLSLRQVVSGNPEAQAPLLENISARYPQLREHIMANPEVFVSMLLEAVGDNMQDVMEGADDMVEGEDIEVTGEAAAAGLGQGEGEGSFQVDYTPEDDQAISRLCELGFERDLVIQVYFACDKNEEAAANILFSDHAD [L276Q], which “effect of a mutation on the interaction” value is on record?
Answer: The value was “with no effect”.
